This is an account of results in patent US20170137467A1 (CHROMOTEK, published 2017).

Test in all cases: library pulldown, LC-MS of supernatant; ratio vs GFP-Nb control (0=captured, 1=not captured)
One assay deals with T1, BC2T A5T (human).
T1 construct: position 5 library, row T
T1 peptide: Ac-PDRKTAVSHWQQ-NH2
In outline: (§1)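 Unbound peptide left in supernatant after 1 h pulldown in PBS/0.01% CHAPS measured by reversed-phase LC-MS (8–30% eluent B gradient, 20 min).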

The next assay has as its target T2, BC2T R3Q (human).
T2 construct: position 3 library (BC2TR3X), row Q
T2 peptide: Ac-PDQKAAVSHWQQ-NH2
The method in brief:
as §1

The target of a further assay is T3, BC2T P1N (human).
T3 construct: position 1 library, row N
T3 peptide: Ac-NDRKAAVSHWQQ-NH2
In outline: as §1

Another assay deals with T4, BC2T A6K (human).
T4 construct: position 6 library (BC2TA6X), row K
T4 peptide: Ac-PDRKAKVSHWQQ-NH2
In outline:
as §1

Another assay has as its target T5, BC2T V7K (human).
T5 construct: position 7 library, row K
T5 peptide: Ac-PDRKAAKSHWQQ-NH2
In outline: as §1

In another assay the target is T6, BC2T A6D (human).
T6 construct: position 6 library (BC2TA6X), row D
T6 peptide: Ac-PDRKADVSHWQQ-NH2
In outline:
as §1

The next assay addresses T7, BC2T D2Q (human).
T7 construct: position 2 library, row Q
T7 peptide: Ac-PQRKAAVSHWQQ-NH2
In outline:
as §1

In a further assay the target is T8, BC2T R3H (human).
T8 construct: position 3 library (BC2TR3X), row H
T8 peptide: Ac-PDHKAAVSHWQQ-NH2
In outline:
as §1

The target of a further assay is T9, BC2T P1E (human).
T9 construct: position 1 library, row E
T9 peptide: Ac-EDRKAAVSHWQQ-NH2
In outline:
as §1

Another assay has as its target T10, BC2T P1Y (human).
T10 construct: position 1 library, row Y
T10 peptide: Ac-YDRKAAVSHWQQ-NH2
In outline: as §1

Another assay addresses T11, BC2T A5K (human).
T11 construct: position 5 library, row K
T11 peptide: Ac-PDRKKAVSHWQQ-NH2
The method in brief: as §1

Another assay has as its target T12, BC2T R3S (human).
T12 construct: position 3 library (BC2TR3X), row S
T12 peptide: Ac-PDSKAAVSHWQQ-NH2
In outline: as §1

The next assay concerns the target T13, BC2T V7W (human).
T13 construct: position 7 library, row W
T13 peptide: Ac-PDRKAAWSHWQQ-NH2
In outline:
as §1

Another assay addresses T14, BC2T D2P (human).
T14 construct: position 2 library, row P
T14 peptide: Ac-PPRKAAVSHWQQ-NH2
In outline: as §1

The next assay addresses T15, BC2T A5D (human).
T15 construct: position 5 library, row D
T15 peptide: Ac-PDRKDAVSHWQQ-NH2
The method in brief:
as §1

For the next assay, the target named is T16, BC2T P1D (human).
T16 construct: position 1 library, row D
T16 peptide: Ac-DDRKAAVSHWQQ-NH2
In outline:
as §1

A further assay has as its target T17, BC2T V7N (human).
T17 construct: position 7 library, row N
T17 peptide: Ac-PDRKAANSHWQQ-NH2
In outline:
as §1

The next assay has as its target T18, BC2T K4Y (human).
T18 construct: position 4 library, row Y
T18 peptide: Ac-PDRYAAVSHWQQ-NH2
The method in brief:
as §1

The target in another assay is T19, BC2T K4S (human).
T19 construct: position 4 library, row S
T19 peptide: Ac-PDRSAAVSHWQQ-NH2
The method in brief:
as §1

The target of a further assay is T20, BC2T K4P (human).
T20 construct: position 4 library, row P
T20 peptide: Ac-PDRPAAVSHWQQ-NH2
In outline:
as §1

A further assay concerns the target T21, BC2T D2K (human).
T21 construct: position 2 library, row K
T21 peptide: Ac-PKRKAAVSHWQQ-NH2
In outline:
as §1

The target in another assay is T22, BC2T R3P (human).
T22 construct: position 3 library (BC2TR3X), row P
T22 peptide: Ac-PDPKAAVSHWQQ-NH2
In outline:
as §1

B1: BC2 nanobody (BC2-Nb) (VHH)
VHH: QVQLVESGGGLVQPGGSLTLSCTASGFTLDHYDIGWFRQAPGKEREGVSCINNSDDDTYYADSVKGRFTIFMDNAKDTVYLQMNSLKPEDTAIYYCAEARGCKRGRYEYDFWGQGTQVTVSS
notes: immobilised on agarose/sepharose beads in this assay; also called BC2 nanotrap (immobilised form); not shown: C-terminal 6xHis-tag added by pHEN6 vector
Take B1: the ratio with BC2T A5T is 0.1; in the assay with BC2T R3Q it was 0.5; in the assay with BC2T P1N, 0.6; with BC2T A6K, 1; in the assay with BC2T V7K, 0.3; in the assay with BC2T A6D, 1. For the same molecule, the ratio with BC2T D2Q came out at 0.1; with BC2T R3H, 0.3; in the assay with BC2T P1E, 0.9; with BC2T P1Y, 0.1; in the assay with BC2T A5K it was 0.2; with BC2T R3S it was 0.6. Moreover, the ratio with BC2T V7W is 0.1; with BC2T D2P, 0.6; with BC2T A5D, 0.5; with BC2T P1D, 1; with BC2T V7N, 0.2; with BC2T K4Y it was 0.2. Also, the ratio in the assay with BC2T K4S was 0.3; with BC2T K4P, 1; in the assay with BC2T D2K it was 0.2; with BC2T R3P it was 0.8.

B2: BC2-NbR106S (VHH)
VHH: QVQLVESGGGLVQPGGSLTLSCTASGFTLDHYDIGWFRQAPGKEREGVSCINNSDDDTYYADSVKGRFTIFMDNAKDTVYLQMNSLKPEDTAIYYCAEARGCKRGSYEYDFWGQGTQVTVSS
notes: immobilised on beads in this assay; not shown: C-terminal 6xHis-tag added by pHEN6 vector
B2: the ratio in the assay with BC2T A5T was 0.3; with BC2T R3Q it was 0.9; with BC2T P1N, 0.7; with BC2T A6K, 0.8; with BC2T V7K, 0.3; with BC2T A6D it was 1. The ratio was 0.2 with BC2T D2Q; 0.7 in the assay with BC2T R3H; 0.8 with BC2T P1E; 0.3 in the assay with BC2T P1Y; 0.2 in the assay with BC2T A5K; 0.9 in the assay with BC2T R3S. The ratio with BC2T V7W is 0.3; in the assay with BC2T D2P it was 0.8; in the assay with BC2T A5D, 0.9; with BC2T P1D, 0.8; with BC2T V7N, 0.4; with BC2T K4Y, 0.5. For the same molecule, the ratio with BC2T K4S is 0.7; in the assay with BC2T K4P, 1; with BC2T D2K, 0.2; in the assay with BC2T R3P, 1.
